What all share (test): flow cytometry on RBCs, antibody 10 ng/ml
For orientation: Flow cytometry measures light scatter and fluorescence of single cells or particles in a stream.

In one assay the target is T1, human CD47 (human, UniProt Q08722 19-323).
T1 construct: whole, on cells; also called CD47 on human red blood cells
On the procedure: (§1) Cross species reactivity of humanized antibodies of the present invention is determined using freshly isolated red blood cells (RBCs), which display CD47 on their surface, from human, mouse, rat, and pig according to the methods disclosed in Kamel et al. (2010) Blood. Transfus. 8(4):260-266.
(§2) RBCs are incubated for 60 minutes on ice with tissue culture supernatants containing the secreted humanized antibodies at a concentration of 10 ng/ml in a solution of phosphate buffered saline, pH 7.2, 2.5 mM EDTA (PBS+E). Cells are then washed with cold PBS+E, and incubated for an additional hour on ice with FITC labeled donkey anti-human antibody (Jackson Immuno Research Labs, West Grove, Pa.; Catalogue #709-096-149) in PBS+E. Cells are then washed with PBS+E, and antibody binding is analyzed using a BD FACSAria Cell Sorter (Becton Dickinson) or a C6 Accuri Flow Cytometer (Becton Dickinson). Antibody binding is quantitated by comparison of mean fluorescence values relative to that of chimeric antibody >VxP037-01LC (SEQ ID NO:7))/>VxP037-01HC (SEQ ID NO:57). The mean fluorescence value for each antibody is divided by the mean fluorescence value for the chimeric antibody.

The next assay addresses T2, mouse CD47 (mouse, UniProt Q61735 19-303).
T2 construct: whole, on cells; also called CD47 on mouse red blood cells
T2 sequence (looked up): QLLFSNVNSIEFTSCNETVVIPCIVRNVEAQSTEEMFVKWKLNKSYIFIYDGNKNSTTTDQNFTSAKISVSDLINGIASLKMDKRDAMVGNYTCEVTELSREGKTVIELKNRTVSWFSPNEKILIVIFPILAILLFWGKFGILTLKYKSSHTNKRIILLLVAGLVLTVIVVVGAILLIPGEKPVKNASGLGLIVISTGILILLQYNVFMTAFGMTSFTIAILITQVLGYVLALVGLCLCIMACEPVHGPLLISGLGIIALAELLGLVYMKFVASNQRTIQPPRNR
On the procedure:
as §1, §2

The target in another assay is T3, rat CD47 (rat, UniProt P97829 19-303).
T3 construct: whole, on cells; also called CD47 on rat red blood cells
T3 sequence (looked up): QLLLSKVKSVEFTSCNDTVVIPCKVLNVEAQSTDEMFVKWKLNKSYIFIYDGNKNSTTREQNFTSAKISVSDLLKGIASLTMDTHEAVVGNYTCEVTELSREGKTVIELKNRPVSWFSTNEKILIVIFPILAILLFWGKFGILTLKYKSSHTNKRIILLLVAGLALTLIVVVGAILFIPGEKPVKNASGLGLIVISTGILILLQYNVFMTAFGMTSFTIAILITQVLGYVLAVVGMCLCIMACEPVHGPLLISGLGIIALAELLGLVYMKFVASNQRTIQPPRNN
On the procedure: as §1, §2

A further assay concerns the target T4, pig CD47 (pig, UniProt Q9GKE8 19-303).
T4 construct: whole, on cells; also called CD47 on pig red blood cells
T4 sequence (looked up): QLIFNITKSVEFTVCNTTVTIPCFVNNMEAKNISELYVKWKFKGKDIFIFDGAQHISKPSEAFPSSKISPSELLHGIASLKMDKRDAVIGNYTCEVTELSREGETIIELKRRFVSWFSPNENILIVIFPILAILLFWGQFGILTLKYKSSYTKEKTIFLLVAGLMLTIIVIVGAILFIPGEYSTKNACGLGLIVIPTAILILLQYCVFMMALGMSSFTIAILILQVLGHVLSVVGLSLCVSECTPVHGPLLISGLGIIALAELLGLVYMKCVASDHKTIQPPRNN
On the procedure:
as §1, §2

The record followed here is patent US20140161799A1 (ARCH ONCOLOGY, published 2014).

T1 sequence (Q08722 19-323): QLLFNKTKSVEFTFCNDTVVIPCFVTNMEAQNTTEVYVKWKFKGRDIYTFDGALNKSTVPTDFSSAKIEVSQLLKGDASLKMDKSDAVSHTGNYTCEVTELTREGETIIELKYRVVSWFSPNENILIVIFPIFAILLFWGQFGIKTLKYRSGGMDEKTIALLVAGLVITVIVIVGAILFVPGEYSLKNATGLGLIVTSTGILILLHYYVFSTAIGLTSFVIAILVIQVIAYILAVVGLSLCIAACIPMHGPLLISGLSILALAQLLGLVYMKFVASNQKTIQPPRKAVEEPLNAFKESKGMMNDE

B1: pVxK7b-037-hum24-LC/pVxK7b-037-hum24-HC (antibody, human IgG1, V domains shown)
VH: QVQLQESGPGLVKPGATVKISCKVSGYTFTNYYVFWVRQARGQRLEWIGDINPVNGDTNFNEKFKNRVTITADKSTSTAYMELSSLRSEDTAVYYCARGGYTMDYWGQG
VL: AIQLTQSPSSLSASVGDRVTITCRSSQSLVHSNGNTYLHWYQQKPGQAPRLLIYKVSYRFSGVPSRFSGSGSGTEFTLTISSLQPDDFATYYCSQNTHVPRTFGQG
notes: Full-length human IgG1/kappa in CHO supernatant; Variable entries end within framework 4 (...FGQG / ...WGQG); also called Clone 24
Turning to B1, the “mean fluorescence relative to chimeric antibody” value with human CD47 was 0.8 fold of chimera; with mouse CD47 it was 0.7 fold of chimera; with rat CD47 it was 1.2 fold of chimera; with pig CD47, 1.1 fold of chimera.

B2: pVxK7b-037-hum04-LC/pVxK7b-037-hum04-HC (antibody, human IgG1, V domains shown)
VH: QVQLQESGPGLVKPSQTLSLTCTVSGYTFTNYYVFWVRQAPGKGLEWVSDINPVNGDTNFNEKFKNRVTISVDTSKNQFSLKLSSVTAADTAVYYCARGGYTMDYWGQG
VL: DIQMTQSPSSLSASVGDRVTITCRSSQSLVHSNGNTYLHWYLQKPGQSPQLLIYKVSYRFSGIPARFSGSGSGTEFTLTISSLQSEDFAVYYCSQNTHVPRTFGQG
notes: Full-length human IgG1/kappa in CHO supernatant; Variable entries end within framework 4 (...FGQG / ...WGQG); also called Clone 4
As for B2, the “mean fluorescence relative to chimeric antibody” value with human CD47 was 0.6 fold of chimera; with mouse CD47 it was 0.6 fold of chimera; in the assay with rat CD47 it was 1 fold of chimera; with pig CD47, 0.6 fold of chimera.

B3: pVxK7b-037-hum15-LC/pVxK7b-037-hum15-HC (antibody, human IgG1, V domains shown)
VH: QVQLQESGPGLVKPSQTLSLTCTVSGYTFTNYYVFWVRQARGQRLEWIGDINPVNGDTNFNEKFKNRLTISKDTSKNQVVLTMTNMDPVDTATYYCARGGYTMDYWGQG
VL: AIQLTQSPSSLSASVGDRVTITCRSSQSLVHSNGNTYLHWYQQKPGQAPRLLIYKVSYRFSGVPSRFSGSGSGTEFTLTISSLQPDDFATYYCSQNTHVPRTFGQG
notes: Full-length human IgG1/kappa in CHO supernatant; Variable entries end within framework 4 (...FGQG / ...WGQG); also called Clone 15
On to B3, for which the “mean fluorescence relative to chimeric antibody” value with human CD47 was 1 fold of chimera; with mouse CD47, 1.3 fold of chimera; in the assay with rat CD47 it was 2.4 fold of chimera; with pig CD47, 1.2 fold of chimera.

B4: pVxK7b-037-hum07-LC/pVxK7b-037-hum07-HC (antibody, human IgG1, V domains shown)
VH: QVQLQESGPGLVKPGATVKISCKVSGYTFTNYYVFWVRQARGQRLEWIGDINPVNGDTNFNEKFKNRVTITADKSTSTAYMELSSLRSEDTAVYYCARGGYTMDYWGQG
VL: DIVMTQTPLSLPVTPGEPASISCRSSQSLVHSNGNTYLHWYLQKPGQSPQLLIYKVSYRFSGVPDRFSGSGSGTDFTLKISRVEAEDVGVYYCSQNTHVPRTFGQG
notes: Full-length human IgG1/kappa in CHO supernatant; Variable entries end within framework 4 (...FGQG / ...WGQG); also called Clone 7
Consider B4, for which the “mean fluorescence relative to chimeric antibody” value with human CD47 is 0.5 fold of chimera; with mouse CD47, 0.4 fold of chimera; with rat CD47, 0.8 fold of chimera; with pig CD47, 0.9 fold of chimera.

B5: pVxK7b-037-hum06-LC/pVxK7b-037-hum06-HC (antibody, human IgG1, V domains shown)
VH: QVQLQESGPGLVKPSQTLSLTCTVSGYTFTNYYVFWVRQARGQRLEWIGDINPVNGDTNFNEKFKNRLTISKDTSKNQVVLTMTNMDPVDTATYYCARGGYTMDYWGQG
VL: DIQMTQSPSSLSASVGDRVTITCRSSQSLVHSNGNTYLHWYLQKPGQSPQLLIYKVSYRFSGIPARFSGSGSGTEFTLTISSLQSEDFAVYYCSQNTHVPRTFGQG
notes: Full-length human IgG1/kappa in CHO supernatant; Variable entries end within framework 4 (...FGQG / ...WGQG); also called Clone 6
With B5, the “mean fluorescence relative to chimeric antibody” value in the assay with human CD47 was 0.9 fold of chimera; with mouse CD47, 1.2 fold of chimera; with rat CD47, 2.1 fold of chimera; with pig CD47, 1.1 fold of chimera.

B6: pVxK7b-037-hum21-LC/pVxK7b-037-hum21-HC (antibody, human IgG1, V domains shown)
VH: QVQLQESGPGLVKPSQTLSLTCTVSGYTFTNYYVFWVRQARGQRLEWIGDINPVNGDTNFNEKFKNRLTISKDTSKNQVVLTMTNMDPVDTATYYCARGGYTMDYWGQG
VL: AIQLTQSPSSLSASVGDRVTITCRSSQSLVHSNGNTYLHWYQQKPGQAPRLLIYKVSYRFSGVPDRFSGSGSGTDFTLKISRVEAEDVGVYYCSQNTHVPRTFGQG
notes: Full-length human IgG1/kappa in CHO supernatant; Variable entries end within framework 4 (...FGQG / ...WGQG); also called Clone 21
Consider B6, for which the “mean fluorescence relative to chimeric antibody” value in the assay with human CD47 is 1.2 fold of chimera; in the assay with mouse CD47, 1.2 fold of chimera; with rat CD47, 2.8 fold of chimera; with pig CD47, 1.4 fold of chimera.

B7: chimeric antibody VxP037-01LC/VxP037-01HC (antibody, human IgG1, kappa, V domains shown)
VH: EVQLQQFGAELVKPGASMKLSCKASGYTFTNYYVFWVKQRPGQGLEWIGDINPVNGDTNFNEKFKNKATLTVDKSSTTTYLQLSSLTSEDSAVYYCTRGGYTMDYWGQGTLVTVSS
VL: DVVMTQTPLSLSVSLGDQASISCRSSQSLVHSNGNTYLHWYLQKPGQSPKLLIYKVSYRFSGVPDRFSGSGSGTDFTLKISRVEAEDLGVYFCSQNTHVPRTFGQGTKVEIKR
notes: tested as CHO supernatant; also called Chimera; VxP037-01-LC-Pro/VxP037-01-HC-Pro
Take B7: the “mean fluorescence relative to chimeric antibody” value with human CD47, with mouse CD47, with rat CD47 and with pig CD47 was 1 fold of chimera throughout.

B8: pVxK7b-037-hum02-LC/pVxK7b-037-hum02-HC (antibody, human IgG1, V domains shown)
VH: QVQLQESGPGLVKPSQTLSLTCTVSGYTFTNYYVFWVRQARGQRLEWIGDINPVNGDTNFNEKFKNRVTISADKSISTAYLQWSSLKASDTAMYYCARGGYTMDYWGQG
VL: DVVMTQSPLSLPVTLGQPASISCRSSQSLVHSNGNTYLHWYQQKPGQAPRLLIYKVSYRFSGVPSRFSGSGSGTEFTLTISSLQPDDFATYYCSQNTHVPRTFGQG
notes: Full-length human IgG1/kappa in CHO supernatant; Variable entries end within framework 4 (...FGQG / ...WGQG); also called Clone 2
For the molecule B8, the “mean fluorescence relative to chimeric antibody” value in the assay with human CD47 was 1 fold of chimera; with mouse CD47, 1.2 fold of chimera; in the assay with rat CD47 it was 2.6 fold of chimera; with pig CD47, 1.2 fold of chimera.

B9: pVxK7b-037-hum19-LC/pVxK7b-037-hum19-HC (antibody, human IgG1, V domains shown)
VH: EVQLVQSGAEVKKPGESLRISCKGSGYTFTNYYVFWIRQSPSRGLEWLGDINPVNGDTNFNEKFKNRVTITADKSTSTAYMELSSLRSEDTAVYYCARGGYTMDYWGQG
VL: DVVMTQSPLSLPVTLGQPASISCRSSQSLVHSNGNTYLHWYQQKPGKAPKLLIYKVSYRFSGVPDRFSGSGSGTDFTLKISRVEAEDVGVYYCSQNTHVPRTFGQG
notes: Full-length human IgG1/kappa in CHO supernatant; Variable entries end within framework 4 (...FGQG / ...WGQG); also called Clone 19
In the case of B9, the “mean fluorescence relative to chimeric antibody” value is 0.7 fold of chimera in the assay with human CD47, 1 fold of chimera with mouse CD47, 2.6 fold of chimera with rat CD47 and 1.3 fold of chimera in the assay with pig CD47.

B10: pVxK7b-037-hum05-LC/pVxK7b-037-hum05-HC (antibody, human IgG1, V domains shown)
VH: QVQLQESGPGLVKPSQTLSLTCTVSGYTFTNYYVFWVRQAPGKGLEWVSDINPVNGDTNFNEKFKNRVTISVDTSKNQFSLKLSSVTAADTAVYYCARGGYTMDYWGQG
VL: DIVMTQTPLSLPVTPGEPASISCRSSQSLVHSNGNTYLHWYLQKPGQSPQLLIYKVSYRFSGVPDRFSGSGSGTDFTLKISRVEAEDVGVYYCSQNTHVPRTFGQG
notes: Full-length human IgG1/kappa in CHO supernatant; Variable entries end within framework 4 (...FGQG / ...WGQG); also called Clone 5
Regarding B10, the “mean fluorescence relative to chimeric antibody” value was 1 fold of chimera with human CD47, 1 fold of chimera with mouse CD47, 2.2 fold of chimera with rat CD47 and 1.2 fold of chimera with pig CD47.

B11: pVxK7b-037-hum13-LC/pVxK7b-037-hum13-HC (antibody, human IgG1, V domains shown)
VH: EVQLVQSGAEVKKPGESLRISCKGSGYTFTNYYVFWIRQSPSRGLEWLGDINPVNGDTNFNEKFKNRVTITADKSTSTAYMELSSLRSEDTAVYYCARGGYTMDYWGQG
VL: DIVMTQTPLSLPVTPGEPASISCRSSQSLVHSNGNTYLHWYQQKPGKAPKLLIYKVSYRFSGVPDRFSGSGSGTDFTLKISRVEAEDVGVYYCSQNTHVPRTFGQG
notes: Full-length human IgG1/kappa in CHO supernatant; Variable entries end within framework 4 (...FGQG / ...WGQG); also called Clone 13
As for B11, the “mean fluorescence relative to chimeric antibody” value with human CD47 is 1.2 fold of chimera; with mouse CD47, 1.3 fold of chimera; with rat CD47, 3.1 fold of chimera; with pig CD47, 1.4 fold of chimera.

B12: pVxK7b-037-hum03-LC/pVxK7b-037-hum03-HC (antibody, human IgG1, V domains shown)
VH: EVQLVQSGAEVKKPGESLRISCKGSGYTFTNYYVFWVRQARGQRLEWIGDINPVNGDTNFNEKFKNRVTITADKSTSTAYMELSSLRSEDTAVYYCARGGYTMDYWGQG
VL: DVVMTQSPLSLPVTLGQPASISCRSSQSLVHSNGNTYLHWYQQKPGKAPKLLIYKVSYRFSGVPDRFSGSGSGTDFTLKISRVEAEDVGVYYCSQNTHVPRTFGQG
notes: Full-length human IgG1/kappa in CHO supernatant; Variable entries end within framework 4 (...FGQG / ...WGQG); also called Clone 3
On to B12, for which the “mean fluorescence relative to chimeric antibody” value is 0.7 fold of chimera with human CD47, 0.9 fold of chimera with mouse CD47, 1.7 fold of chimera with rat CD47 and 0.9 fold of chimera with pig CD47.
